Measurements: patent US20040254347
Entries after “also recorded” stand apart in the source; their conditions may differ.

Tests used:
[1] = biological target: T1, Fusion protein FP#2 (GST fused with insert SEQ ID NO:3)
T1 chain: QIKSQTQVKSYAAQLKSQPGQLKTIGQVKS

[2] = biological target: T2, Fusion Protein No:1 (GST fused with insert SEQ ID NO:2)
T2 chain: QIKS

[3] = biological target: T3, Fusion protein FP#3 (GST fused with insert SEQ ID NO:4)
T3 chain: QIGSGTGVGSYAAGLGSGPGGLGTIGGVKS

Protein | cross-linking by transglutaminase, SDS-PAGE [1] | cross-linking by transglutaminase, SDS-PAGE [2] | cross-linking by transglutaminase, SDS-PAGE [3]
tissue transglutaminase from guinea pig's liver (protein) AEDLILERCDLQLEVNGRDHRTADLCRERLVLRRGQPFWLTLHFEGRGYEAGVDTLTFNAVTGPDPSEEAGTMARFSLSSAVEGGTWSASAVDQQDSTVSLLLSTPADAPIGLYRLSLEASTGYQGSSFVLGHFILLYNPRCPADAVYMDSDQERQEYVLTQQGFIYQGSAKFINGIPWNFGQFEDGILDICLMLLDTNPKFLKNAGQDCSRRSRPVYVGRVVSAMVNCNDDQGVLQGRWDNNYSDGVSPMSWIGSVDILRRWKDYGCQRVKYGQCWVFAAVACTVLRCLGIPTRVVTNFNSAHDQNSNLLIEYFRNESGEIEGNKSEMIWNFHCWVESWMTRPDLEPGYEGWQALDPTPQEKSEGTYCCGPVPVRAIKEGHLNVKYDAPFVFAEVNADVVNWIRQKDGSLRKSINHLVVGLKISTKSVGRDEREDITHTYKYPEGSEEEREAFVRANHLNKLATKEEAQEETGVAMRIRVGQNMTMGSDFDIFAYITNGTAESHECQLLLCARIVSYNGVLGPVCSTNDLLNLTLDPFSENSIPLHILYEKYGDYLTESNLIKVRGLLIEPAANSYVLAERDIYLENPEIKIRVLGEPKQNRKLIAEVSLKNPLPVPLLGCIFTVEGAGLTKDQKSVEVPDPVEAGEQAKVRVDLLPTEVGLHKLVVNFECDKLKAVKGYRNVIIGPA | the enzyme-catalyzed cross-links of FP#2 were very striking ... There were almost no FP#2 monomer left after the enzyme reaction | FP#1 was cross-linked to a dimer by the enzyme reaction; also recorded: FP#1, with the essential sequence of QXKS/T, is a good substrate of transglutaminases from different sources | the enzyme was able to cross-link FP#3
Thrombin-activated factor XIII (human blood factor XIII) (protein) GVNLQEFLNVTSVHLFKERWDTNKVDHHTDKYENNKLIVRRGQSFYVQIDFSRPYDPRRDLFRVEYVIGRYPQENKGTYIPVPIVSELQSGKWGAKIVMREDRSVRLSIQSSPKCIVGKFRMYVAVWTPYGVLRTSRNPETDTYILFNPWCEDDAVYLDNEKEREEYVLNDIGVIFYGEVNDIKTRSWSYGQFEDGILDTCLYVMDRAQMDLSGRGNPIKVSRVGSAMVNAKDDEGVLVGSWDNIYAYGVPPSAWTGSVDILLEYRSSENPVRYGQCWVFAGVFNTFLRCLGIPARIVTNYFSAHDNDANLQMDIFLEEDGNVNSKLTKDSVWNYHCWNEAWMTRPDLPVGFGGWQAVDSTPQENSDGMYRCGPASVQAIKHGHVCFQFDAPFVFAEVNSDLIYITAKKDGTHVVENVDATHIGKLIVTKQIGGDGMMDITDTYKFQEGQEEERLALETALMYGAKKPLNTEGVMKSRSNVDMDFEVENAVLGKDFKLSITFRNNSHNRYTITAYLSANITFYTGVPKAEFKKETFDVTLEPLSFKKEAVLIQAGEYMGQLLEQASLHFFVTARINETRDVLAKQKSTVLTIPEIIIKVRGTQVVGSDMTVTVEFTNPLKETLRNVWVHLDGPGVTRPMKKMFREIRPNSTVQWEEVCRPWVSGHRKLIASMSSDSLRHVYGELDVQIQRRPSM | – | FP#1, with the essential sequence of QXKS/T, is a good substrate of transglutaminases from different sources | –
mouse coagulating gland transglutaminase (TG4) (protein) MDSRNVLIIYAVNVERKLNAAAHHTSEYQTKKLVLRRGQIFTLKVILNRPLQPQDELKVTFTSGQRDPPYMVELDPVTSYRSKGWQVKIAKQSGVEVILNVISAADAVVGRYKMRVNEYKAGVFYLLFNPWCSDDSVFMASEEERAEYILNDTGYMYMGFAKQIKEKPWTFGQFEKHILSCCFNLLFQLENNEMQNPVLVSRAICTMMCAANGGVLMGNWTGDYADGTAPYVWTSSVPILQQHYVTRMPVRYGQCWVFSGILTTALRAVGIPARSVTNFESAHDTEKNLTVDIYLDESGKTIPHLTKDSVWNFHVWTDAWMKRQDLPHGYDGWQVLDSTPQEISDGGFRTGPSPLTAIRQGLIQMKYDTTFVFTEVNGDKFIWLVKQNQEREKNILIAVETASLGKKISTKMVGENRREDITLQYRFPEGSPEERKVMAKASGKPSDDKLNSRTLNNSLQISVLQNSLELGAPIYLTITLKRKTATPQNVNISCSLNLQTYTGNKKTNLGVIQKTVQIHGQESRVFLTMDASYYIYKLGMVDDEMVIGGFIIAEIVDSGERVATDTTLCFLYSAFSVEMPSTGKVKQPLVITSKFTNTLPIPLTNIKFSVESLGLANMKSWEQETVPPGKTITFQMECTPVKAGPQKFIVKFISRQVKEVHAEKVVLISK | – | FP#1, with the essential sequence of QXKS/T, is a good substrate of transglutaminases from different sources | –
